Test results: the supplement of paper PMC9233669
Fewer inactive variants are shown than the library holds.

Key:
biotinyl-Phe-oxazolone = assay: self-aminoacylation, catalytic enhancement (BFO) (fold over background); higher = more active; k-Seq, kA / k0A0; sequences stand for … in GGGAAUGGAUCCACAUCUACGAAUUC…UUCACUGCAGACUUGACGAAGCUG
Method in brief: (§1)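 Catalytic enhancement equals the median kA over the uncatalyzed rate, the latter read from the low-activity peak of a bimodal Gaussian fit. Values of kA came from fitting each sequence's fraction reacted to a pseudo-first-order model, with 1000 bootstraps. Reacted RNA was captured with streptavidin and quantified by triplicate qPCR and Illumina sequencing after 90 minutes at room temperature with 2–1250 μM biotinyl-aminoacyl-oxazolone and 0.43 μM mutagenized RNA pools bearing a 21-nt variable region.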

biotinyl-Leu-oxazolone = assay: self-aminoacylation, catalytic enhancement (BLO) (fold over background); higher = more active; k-Seq, kA / k0A0; sequences stand for … in GGGAAUGGAUCCACAUCUACGAAUUC…UUCACUGCAGACUUGACGAAGCUG
Method in brief: as §1

biotinyl-Trp-oxazolone = assay: self-aminoacylation, catalytic enhancement (BWO) (fold over background); higher = more active; k-Seq, kA / k0A0; sequences stand for … in GGGAAUGGAUCCACAUCUACGAAUUC…UUCACUGCAGACUUGACGAAGCUG
Method in brief: as §1

Row | Sequence | self-aminoacylation (biotinyl-Phe-oxazolone) | self-aminoacylation (biotinyl-Leu-oxazolone) | self-aminoacylation (biotinyl-Trp-oxazolone)
1 | AUACUUCAAACAAUCGGCCUG [Fam1A.1 aminoacylation ribozyme variant] | 20.7 | 2.02 | 15.5
2 | AUUAACCUAGGACAUCGGGUG [Fam2.2 aminoacylation ribozyme variant] | 14.2 | 3.2 | 2.82
3 | AUUCACCCAGGUCAUAGGGUG [Fam2.2 aminoacylation ribozyme variant] | 7.85 | 2.46 | 2.08
4 | AUUCACCCAGGUCGUCGGGUG [Fam2.2 aminoacylation ribozyme variant] | 9.93 | 2.84 | 
5 | AUUCACCUAGGUCAUCGGCAG [Fam2.2 aminoacylation ribozyme variant] |  | 2.03 | 
6 | CAACACUUCAAGAAAUCGGUC [Fam1B.1 aminoacylation ribozyme variant] | 7.2 |  | 5.88
7 | CAACUUCAAACAAUCAGUCUG [Fam1A.1 aminoacylation ribozyme variant] | 29.7 |  | 11.2
8 | CAACUUCAAACAAUCCGUCUG [Fam1A.1 aminoacylation ribozyme variant] | 2.94 |  | 2.31
9 | CAACUUCAAAGAAUCGGUCUG [Fam1A.1 aminoacylation ribozyme variant] | 7.1 |  | 7.86
10 | CCAAACUUCAAGUAAUCGGUC [Fam1B.1 aminoacylation ribozyme variant] | 10.5 |  | 7.85
11 | CCAACCUUCAAGCAAUCGGUC [Fam1B.1 aminoacylation ribozyme variant] | 25.8 |  | 15.3
12 | CCACACUUCAAGCAAUCGGCU [Fam1B.1 aminoacylation ribozyme variant] |  | 2.08 | 2.2
13 | CCACACUUCAAGCCAUCGCUC [Fam1B.1 aminoacylation ribozyme variant] |  | 2.19 | 2.72
14 | CCACACUUCAAUCAAUCAGUC [Fam1B.1 aminoacylation ribozyme variant] | 22.8 |  | 7.45
15 | CCACAGUUCAAACAAUCGGUC [Fam1B.1 aminoacylation ribozyme variant] | 18.2 |  | 12
16 | CCACGCUUCAAACAAUCGGUC [Fam1B.1 aminoacylation ribozyme variant] | 92.8 | 2.17 | 45.3
17 | CCACGCUUCAAGUAAUCGGUC [Fam1B.1 aminoacylation ribozyme variant] | 18.1 |  | 12.9
18 | CCACUCUUCAAGCAAUCGGUC [Fam1B.1 aminoacylation ribozyme variant] | 32.1 |  | 15.1
19 | CCACUUCAAACAAUCGGUAUG [Fam1A.1 aminoacylation ribozyme variant] | 21.3 |  | 12.7
20 | CCAGACUUCAAGAAAUCGGUC [Fam1B.1 aminoacylation ribozyme variant] | 8.29 |  | 6.84

Row | Sequence | self-aminoacylation (biotinyl-Phe-oxazolone) | self-aminoacylation (biotinyl-Leu-oxazolone) | self-aminoacylation (biotinyl-Trp-oxazolone)
21 | CCAGACUUCAAUCAAUCGGUC [Fam1B.1 aminoacylation ribozyme variant] | 34.2 |  | 21.1
22 | CCAGCCUUCAAGCAAUCGGUC [Fam1B.1 aminoacylation ribozyme variant] | 30.7 |  | 21.3
23 | CCAUGCUUCAAGCAAUCGGUC [Fam1B.1 aminoacylation ribozyme variant] | 76.2 | 2.66 | 39
24 | CCCCACUUCAAGCAAUCGGUA [Fam1B.1 aminoacylation ribozyme variant] | 11.8 | 2.71 | 3.44
25 | CCCCUCUUCAAGCAAUCGGUC [Fam1B.1 aminoacylation ribozyme variant] | 49.1 | 2.09 | 31.2
26 | CCUCACUUCAAGCAAUCGGGC [Fam1B.1 aminoacylation ribozyme variant] |  | 2.32 | 3.32
27 | CCUCGCUUCAAGCAAUCGGUC [Fam1B.1 aminoacylation ribozyme variant] | 81.2 | 2.24 | 36
28 | CGAAUUCAAACAAUCGGUCUG [Fam1A.1 aminoacylation ribozyme variant] | 4.97 |  | 3.38
29 | CGACUUCAAACAAUCGGACUG [Fam1A.1 aminoacylation ribozyme variant] | 6.95 |  | 3.53
30 | CGACUUCAAACAAUCGGUCCG [Fam1A.1 aminoacylation ribozyme variant] | 4.63 |  | 4.64
31 | CGCCACUUCAAGCAAUCGGUC [Fam1B.1 aminoacylation ribozyme variant] | 37.1 | 2.26 | 24.2
32 | CGUCACUUCAAGCAAUCGGUC [Fam1B.1 aminoacylation ribozyme variant] | 22 |  | 11.1
33 | CUACGUCAAACAAUCGCUCUG [Fam1A.1 aminoacylation ribozyme variant] | 3.08 | 2.07 | 
34 | CUACUUCAAAAAAUCGGGCUG [Fam1A.1 aminoacylation ribozyme variant] | 3.05 |  | 3.06
35 | CUACUUCAAAAAAUCGGUAUG [Fam1A.1 aminoacylation ribozyme variant] | 4.4 |  | 2.5
36 | CUACUUCAAACAAUCAGUCGG [Fam1A.1 aminoacylation ribozyme variant] | 11.2 |  | 5.8
37 | CUACUUCAAACAAUCGGUCCC [Fam1A.1 aminoacylation ribozyme variant] | 11.1 |  | 6.63
38 | CUACUUCAAAUAAUCGGUCUG [Fam1A.1 aminoacylation ribozyme variant] | 18.3 |  | 10.5
39 | CUACUUCAACAAAUCGGUCUG [Fam1A.1 aminoacylation ribozyme variant] | 7.2 |  | 5.45
40 | CUACUUCAACCAAUCGGUCGG [Fam1A.1 aminoacylation ribozyme variant] | 14.3 |  | 8.86

Row | Sequence | self-aminoacylation (biotinyl-Phe-oxazolone) | self-aminoacylation (biotinyl-Leu-oxazolone) | self-aminoacylation (biotinyl-Trp-oxazolone)
41 | CUACUUCAACUAAUCGGUCUG [Fam1A.1 aminoacylation ribozyme variant] | 12.9 |  | 8.63
42 | CUCCUUCAAACAAUCGGUCUA [Fam1A.1 aminoacylation ribozyme variant] | 18.5 |  | 9.25
43 | CUCCUUCAAUCAAUCGGUCUG [Fam1A.1 aminoacylation ribozyme variant] | 24.6 |  | 18.4
44 | CUGCGUCAAACAAUCGGUCUG [Fam1A.1 aminoacylation ribozyme variant] | 8.22 |  | 7.19
45 | CUGCUACAAACAAUCGGUCUG [Fam1A.1 aminoacylation ribozyme variant] | 2.73 |  | 2.27
46 | CUGCUUCAAACAAUCGGUCAG [Fam1A.1 aminoacylation ribozyme variant] | 41.9 |  | 23
47 | CUGCUUCAAAUAAUCGGUCUG [Fam1A.1 aminoacylation ribozyme variant] | 23.7 |  | 17.4
48 | CUUCUUCAAACAAUCAGUCUG [Fam1A.1 aminoacylation ribozyme variant] | 12.3 |  | 5.05
49 | CUUCUUCAAACAAUCGGUUUG [Fam1A.1 aminoacylation ribozyme variant] | 20.7 |  | 13.8
50 | GAGUUUUCUAAUAGUCGCAAG [Fam3.1 aminoacylation ribozyme variant] | 3.59 |  | 2.07
51 | GCACACUCCAAGCAAUCGGUC [Fam1B.1 aminoacylation ribozyme variant] | 2.35 |  | 2.53
52 | GUACUUCAAGCAAUCGGUCUG [Fam1A.1 aminoacylation ribozyme variant] | 8.1 |  | 7.17
53 | GUGUUUGCUAAUAGUCGCAAG [Fam3.1 aminoacylation ribozyme variant] | 5.9 |  | 4.15
54 | UAGUUUCCUAAUAGUCGCAAG [Fam3.1 aminoacylation ribozyme variant] | 2.31 |  | 2.1
55 | UCACACUUCAAGUAAUCGGUC [Fam1B.1 aminoacylation ribozyme variant] | 12.7 |  | 7.97
56 | UUACUUCAAACAAUCGGUCAG [Fam1A.1 aminoacylation ribozyme variant] | 8.02 |  | 5.17
57 | UUACUUCAAUCAAUCGGUCUG [Fam1A.1 aminoacylation ribozyme variant] | 19.7 |  | 15
58 | UUAUUUCAAACAAUCGGUCUG [Fam1A.1 aminoacylation ribozyme variant] | 5.5 |  | 3.27
